From publication PMC10801813, “In silico protein interaction screening uncovers DONSON’s role in replication initiation” (Science (New York, N.Y.), 2023)

T1: Recombinant Xenopus GINS (preparation of ref. 54, Sf9 expression) (Xenopus laevis, UniProt Q7ZT47 1-196; Q7ZT46 1-185; Q7ZT01 1-210; Q7ZT48 1-221)
T1 construct: PSF1 subunit of Xenopus GINS; PSF2 subunit of Xenopus GINS; PSF3 subunit of Xenopus GINS; SLD5 subunit of Xenopus GINS; also called purified GINS; source: Sf9 expression, purified; copies: + + +
T1 sequence (looked up) 1: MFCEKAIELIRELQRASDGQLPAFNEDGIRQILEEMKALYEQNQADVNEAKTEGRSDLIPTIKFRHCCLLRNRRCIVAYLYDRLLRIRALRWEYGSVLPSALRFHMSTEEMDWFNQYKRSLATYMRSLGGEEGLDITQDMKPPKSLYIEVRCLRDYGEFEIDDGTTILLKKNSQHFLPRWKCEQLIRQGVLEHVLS
T1 sequence (looked up) 2: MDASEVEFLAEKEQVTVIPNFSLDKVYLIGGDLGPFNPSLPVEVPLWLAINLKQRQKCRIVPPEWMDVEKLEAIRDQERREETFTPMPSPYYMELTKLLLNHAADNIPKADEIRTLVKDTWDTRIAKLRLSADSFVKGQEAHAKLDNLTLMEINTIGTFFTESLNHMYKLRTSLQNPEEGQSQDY
T1 sequence (looked up) 3: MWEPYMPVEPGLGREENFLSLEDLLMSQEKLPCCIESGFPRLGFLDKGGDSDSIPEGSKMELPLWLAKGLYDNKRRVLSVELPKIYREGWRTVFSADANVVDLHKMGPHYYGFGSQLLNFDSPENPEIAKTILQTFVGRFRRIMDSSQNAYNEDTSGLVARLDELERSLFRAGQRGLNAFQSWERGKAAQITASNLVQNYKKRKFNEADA
T1 sequence (looked up) 4: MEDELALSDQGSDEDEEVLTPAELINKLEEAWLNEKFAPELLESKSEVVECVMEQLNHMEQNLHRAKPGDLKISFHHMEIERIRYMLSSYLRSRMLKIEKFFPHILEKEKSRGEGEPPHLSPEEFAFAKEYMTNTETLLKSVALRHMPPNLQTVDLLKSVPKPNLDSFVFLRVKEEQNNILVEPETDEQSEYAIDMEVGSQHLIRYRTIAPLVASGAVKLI


Tests used:
[1] = target: the molecule itself; assay: mass photometry; Refeyn TwoMP; FLAG-DONSON diluted to 200 nM in egg lysis buffer (10 mM HEPES-KOH pH 7.7, 50 mM KCl, 2.5 mM MgCl2, 250 mM sucrose), 2 μL mixed into an 18 μL droplet of PBS
[2] = target: T1, Recombinant Xenopus GINS (preparation …); assay: co-IP; purified FLAG-DONSON, GINS and TOPBP1^1−530 mixed, each 0.5 μM in IP wash buffer, 15 min room temperature; anti-FLAG beads 30 min room temperature; immunoblot (fig. S11B, lanes 22 to 24); settings: both partners purified

| binding result [2] | Binder | stoichiometry N [1] |
| --- | --- | --- |
| binds | Recombinant FLAG-tagged DONSON, wild type (natural protein, Xenopus laevis, UniProt Q5U4U4 1-579, looked up, Xenopus DONSON (Downstream Neighbor of SON); also called rFLAG-DONSON; FLAG-DONSON; source: E. coli Rosetta (DE3) pLysS, purified (Glutathione Sepharose, PreScission cleavage, Superdex 200); not shown: GST, N-terminal, cleaved) MAELLPGYSPSFKKPSEILRLSRRRSRSEASKTGLSPFSPGDVIKRVPGLRPFSPGPNKGAGVKRRNPFASLENTVCSPVKRRAETVAEYGAASLEPRALSAVRPSCLGQDSPEPPQFNSVEDVIWGDPLAADADPLVKTESPEKPAPACEIPKGSVTFPADWSLKTRLLFTSSHSFSWADHLKAQEEAQGLVMQCRATAVNLPHSIQEPKLSTDLRCAFQQSLVHWIHPSLPWVQLFPRIGVDRKMAGKNTPWSQDESLQQVLMSEWALSFTSLYNLLKAKLCPYFYVCTYQFTVLFRAAGLAGSDVITAVMSPTTRGLREAMKNEGITFSQPLVEDDTGKKQKKPEAASQGDINPEKENGTAEADEASDESDEDESFSWLEEMGVEDKIKKPDSISIKLRKEKNEVKLDHKPESVVLVKGTNTFTLLNFLINCKSIVAAAGLQAGLPPTLLSPVAFRGATMHALKARSVNVKTRVNSGYKDQFSLEITGPIMPHSLHSLTMLLQSAQRGSFSAGLYTHEPTAVFNTPIHSQAVKEISADLQNCGLHPCTVEQLTQVNELGKLSLRHLEMTDYRYTWK | 2 |
| binds | Recombinant FLAG-tagged DONSON N430A (natural protein, Xenopus laevis, UniProt Q5U4U4 1-579, looked up, Xenopus DONSON with N430A; source: E. coli Rosetta (DE3) pLysS, purified (Glutathione Sepharose, PreScission cleavage, Superdex 200); not shown: GST, N-terminal, cleaved) MAELLPGYSPSFKKPSEILRLSRRRSRSEASKTGLSPFSPGDVIKRVPGLRPFSPGPNKGAGVKRRNPFASLENTVCSPVKRRAETVAEYGAASLEPRALSAVRPSCLGQDSPEPPQFNSVEDVIWGDPLAADADPLVKTESPEKPAPACEIPKGSVTFPADWSLKTRLLFTSSHSFSWADHLKAQEEAQGLVMQCRATAVNLPHSIQEPKLSTDLRCAFQQSLVHWIHPSLPWVQLFPRIGVDRKMAGKNTPWSQDESLQQVLMSEWALSFTSLYNLLKAKLCPYFYVCTYQFTVLFRAAGLAGSDVITAVMSPTTRGLREAMKNEGITFSQPLVEDDTGKKQKKPEAASQGDINPEKENGTAEADEASDESDEDESFSWLEEMGVEDKIKKPDSISIKLRKEKNEVKLDHKPESVVLVKGTNTFTLLAFLINCKSIVAAAGLQAGLPPTLLSPVAFRGATMHALKARSVNVKTRVNSGYKDQFSLEITGPIMPHSLHSLTMLLQSAQRGSFSAGLYTHEPTAVFNTPIHSQAVKEISADLQNCGLHPCTVEQLTQVNELGKLSLRHLEMTDYRYTWK | – |
